Measured values reported in patent US20250228937A1, “MEDICAMENT FOR TREATMENT AND/OR PREVENTION OF CANCER” (TORAY INDUSTRIES, INC., priority 2021, published 2025).
Positions count from the first letter of the chain named.

B1: anti-CAPRIN-1 antibody (d) (antibody, V domains shown)
VH: QSLEESGGDLVKPGASLTLTCTASGFSFSGSYYMSWVRQAPGKGLEWIAYIYIGDGVTAYANWAKGRFTISKASSTTVTLQMTSLTAADTATYFCARGNKLWGPGTLVTVSS
VL: DVVMTQTPASVEAAVGGTVTIKCQASQSISSYLAWYQQKPGQPPKRLIYDASNLDSGVPSRFKGSGSGTDFTITISDLECADAATYYCQCTAVSSATIYGNAFGGGTEVVVK
B2: anti-CAPRIN-1 antibody (e) (antibody, V domains shown)
VH: AVTLDESGGGLQTPGGALSLVCKASGFTFSGYDMLWVRQAPGKGLEWVAGIGSTGGGTDYGAAVKGRATISRDNGQSTVRLQLNNLRAEDTATYYCAKVAGGCNSGYCRDSPGSIDAWGHGTEVIVS
VL: AVTQQPASVSANPGETVKITCSGGGSRNYYGWYQQKSPGSVPVTVIYYDDQRPSNIPSRFSGALSGSTSTLTITGVQADDEAVYFCGSADSNTYEGSFGAGTTLTVL
B3: anti-CAPRIN-1 antibody (i) (antibody, V domains shown)
VH: GAELVRSGASVKMSCKASGYSFTDYNMYWVKQTPGQGLEWIGYIYPGNGGTNYNQKFKGKATLTADTSSSTAYMQISSLTSEDSAVYFCARDYDDGGYAMDYWGQGTTVTVSS
VL: DIQMTQSPASLSASVGETVTITCRASGNIHNYLTWYQQKQGKSPQLLVYNAKTLADGVPSRFSGSGSGTQYSLKINRLQPEDFGSYYCQHFWNIPWTFGGGTKLNSR
B4: anti-CAPRIN-1 antibody (j) (antibody, V domains shown)
VH: DAELVKPGASVKISCKASGYTFTDHSIHWVQQKPEQGLEWIGYISPGNGNIKYNEKFKGKATLTADKSSSTAYMQLNSLTSEDSAVYFCKRSLGRGGPYYFDYWGQGTTVTVSS
VL: DIVLTQAAPSLPVTPGESVSISCRSSKSLLHSNGNTYLYWFLQRPGQSPQLLIYRMSNLASGVPDRFSGSGSGTAFTLRISRVEAEDVGVYYCMQHREYPVTFGSGPN
B5: anti-CAPRIN-1 antibody (o) (antibody, V domains shown)
VH: EVQLHQFGAELVKPGASVKISCKASGYTFTDYNMDWVKQSHGKSLEWIGDINPNYDSTSYNQKFKGKATLTVDKSSSTAYMELRSLTSEDTAVYYCARSRSYDYEGFAYWGQGTLVTVSA
VL: DIQMTQSPASLSASVGETVTITCRASGNIHNYLAWYQQKQGKSPQLLVYNAKTLADGVPSRFSGSGSGTQYSLKINSLQPEDFGSYYCQHFWSTLTFGAGTKLELKR
B6: anti-CAPRIN-1 antibody (z) (antibody, V domains shown)
VH: GPDLVKPGASVKISCKASGYSFTAYYMHWVKQSHGKSLEWIGRVNPNNGGTTYNQKFKGKAILTVDKSSSTAYMELRSLTFEDSAVYYCARRIYYGYFDYWGQGTTVTVSS
VL: AFFAVSLGQRATISCKASQSVDYDGDSYMNWYQQKPGQPPKLLIYVASNLESGVPARFSGSGSGTDFTLNIHPVEEEDAATYYCQQSNEDPYTFGGGTKLEIKQ
B7: anti-CAPRIN-1 antibody (af) (antibody, V domains shown)
VH: EVQLVESGGGLVQPGGSLRLSCAASGFSLSSHSLGWVRQAPGKGLEWIGDIRSGGSAYYANWAKGRFTISRDNSKNTLYLQMNSLRAEDTAVYYCTRTNGPSDLTNRLDLWGQGTLVTVSS
VL: QVLTQSPSSLSASVGDRVTINCQASQSLYNNENLAWFQQKPGKVPKRLIYGASTLASGVSSRFSGSGSGTEFTLTISSLQCEDFAIYYCLGEFSCGSADCFAFGGGTKVEIK
B8: anti-CAPRIN-1 antibody (ag) (antibody, V domains shown)
VH: B7 VH with Y94F
VL: B7 VL
B9: anti-CAPRIN-1 antibody (b) (antibody, V domains shown)
VH: B7 VH with V2Q, Q3S
VL: B7 VL
B10: anti-CAPRIN-1 antibody (ah) (antibody, V domains shown)
VH: B7 VH
VL: EQVLTQSPSSLSASVGDRVTINCQASQSLYNNENLAWFQQKPGKVPKRLIYGASTLASGVSSRFSGSGSGTEFTLTISNLQPEDFAIYYCLGEFSCGSADCFAFGGGTKVEIK
B11: anti-CAPRIN-1 antibody (ai) (antibody, V domains shown)
VH: B7 VH with Y94F
VL: B10 VL with Q2I, I87T
B12: anti-CAPRIN-1 antibody (aj) (antibody, V domains shown)
VH: B7 VH
VL: B10 VL with Q2I, I87T
B13: anti-CAPRIN-1 antibody (ak) (antibody, V domains shown)
VH: B7 VH with Y94F
VL: B10 VL
B14: anti-CAPRIN-1 antibody (a) (antibody, V domains shown)
VH: AVTLDESGGGLQMSRGGLSLVCKASGFDFSSYQMNWIRQAPGKGLEFVAAINKFGNSTGHGAAVKGRVTISRDNGQSTVRLQLNNLRAEDTAIYFCTKHAYGYCGSGTWCAAGEIDAWGHGTEVIVSS
VL: QAASTQPSSVSANPGETVEITCSGGGSYSYGWFQQKSPGSAPVTVIYYNNKRPSDIPSRFSGSKSGSTGTLTITGVQADDEAVYYCGSGDSTDTAVFGAGTTLTVLG
B15: anti-CAPRIN-1 antibody (c) (antibody, V domains shown)
VH: AVTLDESGGGLQTPGGGLSLVCKASGFTFSSFDMGWVRQAPGKGLEFVAQINDAGSRTWYATAVKGRATISRDNGQTTVRLQLNNLRAEDTGTYYCTRGSGYVGAGAIDAWGHGTEVIVS
VL: AALTQPSSVSANPGETVKITCSGGSGYYGWYQQQKSPGSAPVTVIYQNDKRPSDIPSRFSGSGSGSTNTLTITGVQAEDEAVYFCGRYDSTDSGIFGAGTTLTVL

Tests used:
[1] = system: human breast cancer cells BT474; assay: In vivo antitumor effect of anti-CAPRIN-1 antibody and topotecan in BT474 cancer-bearing mice; design: species or system NOD-SCID mice; settings: day 56 after bearing cancer; for tumor volume, assuming that the tumor volume of the negative control was 100%: topotecan alone, four times
Protocol: An in vivo antitumor effect in a cancer-bearing mouse by a combined use of the anti-CAPRIN-1 antibody (anti-CAPRIN-1 humanized antibody #1) produced in Example 1 and topotecan was evaluated.
Specifically, the antitumor effect of the combined use of the anti-CAPRIN-1 antibody and topotecan according to the present invention was studied using NOD-SCID mice in which human-derived cancer cells expressing CAPRIN-1 protein were subcutaneously transplanted. Human breast cancer cells BT474 were subcutaneously transplanted at 2×10^7 cells per mouse as a mixture with Matrigel (Sigma) and allowed to grow until a tumor became approximately 154 to 155 mm^3 to prepare cancer-bearing mice. The cancer cells BT474 express CAPRIN-1 protein on cell membrane surfaces, and the anti-CAPRIN-1 antibodies produced in Example 1 were confirmed to react with a portion of CAPRIN-1 present on the cell membrane surfaces. Each anti-CAPRIN-1 antibody produced in Example 1 was administered at 10 mg/kg once a week, four times in total, to the tail veins of eight cancer-bearing mice described above. To the same mice, a low dose (3 mg/kg) or a high dose (10 mg/kg) of topotecan was administered once every four days, four times in total.
For a comparative control group, the same dose of the same anti-CAPRIN-1 antibody as above was administered once a week to cancer-bearing mice. Furthermore, for another comparative control group, a low dose (3 mg/kg) or a high dose (10 mg/kg) of topotecan was administered to other cancer-bearing mouse individuals at the same administration intervals. Cancer-bearing mice in a non-treatment group were used as negative controls. After the start of administration, the sizes of cancers in the cancer-bearing mice were measured over time using calipers. The tumor volume of each individual was calculated according to a standard method using a calculation formula: (Length of the major axis of the tumor)×(Length of the minor axis of the tumor)^2×0.5, and the average of the treated group was calculated.

[2] = platinum-insensitive patient, cited from earlier work
[3] = biological target: T1, human CAPRIN-1 protein expressed on cell membrane surfaces of human cancer cells (human, UniProt Q14444 2-709); assay: flow cytometry on cancer cells expressing CAPRIN-1
T1 construct: whole, on cells; only a portion of CAPRIN-1 is said to be on the membrane surface
T1 sequence (looked up): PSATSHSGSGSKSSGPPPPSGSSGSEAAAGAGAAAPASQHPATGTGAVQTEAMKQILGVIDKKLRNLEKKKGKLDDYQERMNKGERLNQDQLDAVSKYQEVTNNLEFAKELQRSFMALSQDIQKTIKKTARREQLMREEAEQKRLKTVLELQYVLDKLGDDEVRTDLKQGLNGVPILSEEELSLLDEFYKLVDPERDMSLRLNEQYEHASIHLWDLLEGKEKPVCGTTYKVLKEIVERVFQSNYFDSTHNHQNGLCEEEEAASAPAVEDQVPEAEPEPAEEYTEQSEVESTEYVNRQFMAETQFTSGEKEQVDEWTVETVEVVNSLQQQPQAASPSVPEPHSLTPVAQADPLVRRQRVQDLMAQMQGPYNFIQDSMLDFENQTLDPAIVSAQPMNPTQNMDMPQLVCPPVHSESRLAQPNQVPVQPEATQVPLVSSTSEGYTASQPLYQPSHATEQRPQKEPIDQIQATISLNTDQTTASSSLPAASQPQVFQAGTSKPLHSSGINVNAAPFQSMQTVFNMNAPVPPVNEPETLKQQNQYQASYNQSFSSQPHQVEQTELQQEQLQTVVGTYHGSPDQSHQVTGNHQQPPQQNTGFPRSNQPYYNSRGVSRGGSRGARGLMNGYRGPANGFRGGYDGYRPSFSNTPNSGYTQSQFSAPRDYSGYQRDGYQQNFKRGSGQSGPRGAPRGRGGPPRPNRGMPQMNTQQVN

| Molecule | binding result [3] | further results |
| --- | --- | --- |
| CC[C@@]1(O)C(=O)OCc2c1cc1n(c2=O)Cc2cc3c(CN(C)C)c(O)ccc3nc2-1 [topotecan] |  | tumor volume compared to that at the start of the administration ([1]; antibody 10 mg/kg, topotecan low (3 mg/kg) and high (10 mg/kg) dose): increased; tumor volume, assuming that the tumor volume of the negative control was 100% ([1]; high dose 10 mg/kg once every four days): 16%; tumor volume, assuming that the tumor volume of the negative control was 100% ([1]; low dose 3 mg/kg once every four days): 33% |
| bevacizumab |  | PFS ([2]; bevacizumab combined with a chemotherapeutic versus monochemotherapy): 6.7 months; OS compared with monochemotherapy ([2]; bevacizumab combined with a chemotherapeutic): no significant difference |
| B1 | binds |  |
| B2 | binds |  |
| B3 | binds |  |
| B4 | binds |  |
| B5 | binds |  |
| B6 | binds |  |
| B7 | binds |  |
| B8 | binds |  |
| B9 | binds |  |
| B10 | binds |  |
| B11 | binds |  |
| B12 | binds |  |
| B13 | binds |  |
| B14 | binds |  |
| B15 | binds |  |
